Paper PMC9103184, “Kunitz-Type Peptides from Sea Anemones Protect Neuronal Cells against Parkinson’s Disease Inductors via Inhibition of ROS Production and ATP-Induced P2X7 Receptor Activation” (International Journal of Molecular Sciences, 2022)

What was measured:
trypsin = molecular target: T1, trypsin (Bos taurus, UniProt P00760); test: Residual trypsin-inhibitory activity after heating; format: biochemical; conditions: all temperature ranges up to 100 °C; 7 μM peptide, 1.2 mM BAPNA, 37 °C, 410 nm, three parallel experiments
T1 sequence (P00760 24-246): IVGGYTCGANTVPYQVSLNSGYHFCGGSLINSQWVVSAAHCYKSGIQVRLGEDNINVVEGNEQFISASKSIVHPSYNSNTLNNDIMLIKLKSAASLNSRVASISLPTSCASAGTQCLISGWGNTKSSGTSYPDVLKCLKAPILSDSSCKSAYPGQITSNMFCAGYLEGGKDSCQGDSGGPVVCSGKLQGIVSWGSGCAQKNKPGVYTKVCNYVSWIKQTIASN
Protocol: Figure 6 The effects of temperature on the trypsin-inhibitory activity levels of peptides. Peptides were incubated at the temperatures for 30 min and their residual activities were measured.
The temperature influence on the activity levels of peptides was assessed by measuring their residual inhibitory activity levels. After preincubation at temperatures ranging from 25 to 100 °C for 25 min, the peptide solutions were added to trypsin solution and the reaction mixtures were incubated for 10 min at 37 °C, then 1.2 mM BAPNA was added, followed by incubation at 37 °C for 30 min. The final concentration of the peptides was 7 μM. Substrate hydrolysis was measured at 410 nm. The residual activity was calculated based on the results of three parallel experiments according to the following equation [60]:% = (1 − residual enzyme activity/enzyme activity without inhibitor) × 100

Neuro-2a cells = conditions: cited from earlier work
Protocol: The peptides were tested for cell viability in in vitro 6-OHDA-, rotenone-, paraquat-, and MPP^+-induced Parkinson’s disease models. All peptides were non-toxic on Neuro-2a cells at a concentrations up to 10 µM (Figure S2). The viability of neurotoxin-treated cells was about 65% versus control (Figure 7).

P2X7R = test: ATP-induced YO-PRO-1 uptake in Neuro-2a cells; format: cell-based, murine; conditions: 0.01–1.0 μM, 4 mM ATP
Protocol: Figure 11 The effects of the peptides on ATP-induced Neuro-2a cell viability and activation of P2X7R. (a) Impact of the peptides on Neuro-2a cell viability in the presence of 4 mM ATP. The peptides were tested at concentrations of 0.01, 0.1, and 1.0 μM. Cells were incubated with peptides for 1 h at 37 °C, then for 48 h with ATP. (b) Effects of the peptides (0.01, 0.1, and 1.0 μM) on YO-PRO-1 uptake in Neuro-2a cells. ATP was used as a P2X7R agonist. A438079 (10 μM) was used as a standard inhibitor of P2X7R. The peptide effects were evaluated against the effects of ATP. The data are shown as means ± SE; *—p < 0.05 compared to the effect of ATP alone.
For the uptake measurements of the large cationic dye YO-PRO-1, the peptides at final concentrations of 0.01, 0.1, and 1.0 μM were added to the culture medium with Neuro-2a cells and further incubated for 1 h at 37 °C with 5% CO2. Then, the cells were washed once with Hanks’ balanced salt solution (HBSS) (140 mM NaCl, 5 mM KCl, 0.8 mM MgCl2, 2 mM CaCl2, 10 mM glucose, 10 mM HEPES, pH 7.4) and filled with 180 μL of the same buffer. YO-PRO-1 (Sigma-Aldrich, St. Louis, MO, USA) was loaded into the wells to a final concentration of 5 μM, the cells were incubated for 15 min at 37 °C, then ATP was added to a final concentration of 4 mM and the plates were incubated for an additional 10 min. Then, the cells were washed three times with the buffer solution and the fluorescence intensity levels were measured with a PHERAstar FS plate reader (BMG, Germany) at λex = 480 nm and λem = 520 nm. A438079 (10 μM), a standard inhibitor of P2X7R, was used as positive control. The effectiveness of the peptides was evaluated relative to the control with ATP.

serine proteinases = conditions: cited from earlier work
Source text: A new peptide, HCIQ1c9, with Gly17Arg at position P1’ of the reactive site was also found in a combinatorial library of H. crispa Kunitz-type peptides and produced in E. coli. Thus, in this work four isoforms of Kunitz-type peptides with point a.a. substitutions were studied in various in vitro models.

[1] = CD spectroscopy, secondary structural elements (Provencher–Glockner); format: physicochemical; parameters: unit not given here; conditions: deionized water, Provencher–Glockner method
Source text: To calculate secondary structural elements of peptides, circular dichroism (CD) spectroscopy was applied. CD spectroscopy is a fast, well-established, and widely used analytical technique to study secondary structures of proteins and their changes in different environments. According to Figure 3, all spectra in the far UV region (190–240 nm) have similar profiles and are characterized by a positive maximum peak at 193 nm and negative minimum peaks at 202 and 225 nm. […] The peptides have an approximately equal content of secondary structural elements, while a slight increase in α-helixes and decrease in β-structure were found in HCIQ1c9 (Table 1), which might be reflected in the spatial structure and biological activity of the peptide.
Circular dichroism (CD) spectra were recorded on a Chirascan-Plus CD spectropolarimeter (Applied Photophysics, Leatherhead, UK) in quartz cuvettes with an optical path length of 0.1 cm for the peptide spectrum region. The peptides were dissolved in deionized water ([…]) and incubated at temperatures ranging from 25 °C to 100 °C for 20–25 min before recording the CD spectra. The secondary structure elements were calculated using the Provencher–Glockner method using advanced Provencher calculation programs from the CDPro software package (Leatherhead, UK).

Substance: HCIQ2c1: recombinant Kunitz-type peptide from Heteractis crispa, UniProtKB ID A0A6B7FBD3 (IQGNICSEPKKVGRCRGSFPRFYFDSETGKCTPFIYGGCGGNGNNFETLHACRAICRA; UniProt A0A6B7FBD3 28-85, looked up)
- trypsin-inhibitory activity after heating (trypsin): inhibit trypsin completely at all temperature ranges
- increase in viability of 6-OHDA-treated cells (Neuro-2a cells): 47%
- protection against 6-OHDA compared with HCIQ4c7 (Neuro-2a cells): stronger neuroblastoma cell viability against 6-OHDA than HCIQ4c7
- inhibition of ATP-induced YO-PRO-1 uptake (P2X7R): inhibited ATP-induced dye uptake, but their effects were not statistically significant
- interaction with serine proteinases (serine proteinases): interact with several serine proteinases, including inflammatory ones
- Unordered Structure [1]: 35.7
- β-Turn [1]: 19.0
- α-Helix II ([1]; irregular structure): 13.9
- β-Structure II ([1]; irregular structure): 6.9
- β-Structure I ([1]; regular structure): 17.4
- α-Helix I ([1]; regular structure, far UV 190–240 nm): 7.1
- α-Helix III ([1]; summary value): 21.0
- β-Structure III ([1]; summary value): 24.3
